# Where no end group is shown, it is not given here.
# B1: AF488-labeled GR10 (peptide)
# peptide: GRGRGRGRGRGRGRGRGRGRKC(Alexa Fluor 488 C5‑maleimide)
# notes: poly-GR, 10 repeats, plus C-terminal K and C; also called AF488-GR10; DPR-AF488; source: synthetic peptide (Genscript)
# B2: AF488-labeled PR10 (peptide)
# peptide: PRPRPRPRPRPRPRPRPRPRKC(Alexa Fluor 488 C5‑maleimide)
# notes: poly-PR, 10 repeats, plus C-terminal K and C; also called AF488-PR10; DPR-AF488; source: synthetic peptide (Genscript)
# B3: GR10, synthetic poly-glycine-arginine 10-mer dipeptide repeat protein with C-terminal lysine and cysteine (peptide)
# peptide: GRGRGRGRGRGRGRGRGRGRKC
# notes: C9orf72 repeat-associated non-AUG translation product poly-GR, 10 repeats, plus C-terminal K (solubility) and C (labelling); unlabelled form, used in the FRET, GFP-Trap, sedimentation and import assays; also called poly-GR; R-DPR; source: synthetic peptide (Genscript; 21st Century Biochemicals)
# B4: PR10, synthetic poly-proline-arginine 10-mer dipeptide repeat protein with C-terminal lysine and cysteine (peptide)
# peptide: PRPRPRPRPRPRPRPRPRPRKC
# notes: C9orf72 repeat-associated non-AUG translation product poly-PR, 10 repeats, plus C-terminal K and C; unlabelled form; also called R-DPR; source: synthetic peptide (Genscript; 21st Century Biochemicals)
# How the values were obtained:
# [1] = biological target: T1, biotinylated WT importin β-Avitag (human, UniProt Q14974 1-876, biotin on the Avitag); test: bead halo assay; biotinylated importin β or biotinylated BSA on neutravidin polystyrene beads; fluorescent prey (200 nM AF488-DPR, Rango) in binding buffer with assay buffer (EDTA, BSA, NaCl, Tween); room temperature, at least 30 min; confocal rim vs. background ratio; conditions: both partners purified
# T1 construct: WT human importin β (KPNB1) in pRSET A with C-terminal Avitag; Called WT; Held on neutravidin beads by the biotin; also called biotinylated importin β; importin β-coated beads; source: E. coli BL21DE3, co-expressed with BirA biotin ligase, purified (Ni-NTA)
# T1 sequence (Q14974 whole entry): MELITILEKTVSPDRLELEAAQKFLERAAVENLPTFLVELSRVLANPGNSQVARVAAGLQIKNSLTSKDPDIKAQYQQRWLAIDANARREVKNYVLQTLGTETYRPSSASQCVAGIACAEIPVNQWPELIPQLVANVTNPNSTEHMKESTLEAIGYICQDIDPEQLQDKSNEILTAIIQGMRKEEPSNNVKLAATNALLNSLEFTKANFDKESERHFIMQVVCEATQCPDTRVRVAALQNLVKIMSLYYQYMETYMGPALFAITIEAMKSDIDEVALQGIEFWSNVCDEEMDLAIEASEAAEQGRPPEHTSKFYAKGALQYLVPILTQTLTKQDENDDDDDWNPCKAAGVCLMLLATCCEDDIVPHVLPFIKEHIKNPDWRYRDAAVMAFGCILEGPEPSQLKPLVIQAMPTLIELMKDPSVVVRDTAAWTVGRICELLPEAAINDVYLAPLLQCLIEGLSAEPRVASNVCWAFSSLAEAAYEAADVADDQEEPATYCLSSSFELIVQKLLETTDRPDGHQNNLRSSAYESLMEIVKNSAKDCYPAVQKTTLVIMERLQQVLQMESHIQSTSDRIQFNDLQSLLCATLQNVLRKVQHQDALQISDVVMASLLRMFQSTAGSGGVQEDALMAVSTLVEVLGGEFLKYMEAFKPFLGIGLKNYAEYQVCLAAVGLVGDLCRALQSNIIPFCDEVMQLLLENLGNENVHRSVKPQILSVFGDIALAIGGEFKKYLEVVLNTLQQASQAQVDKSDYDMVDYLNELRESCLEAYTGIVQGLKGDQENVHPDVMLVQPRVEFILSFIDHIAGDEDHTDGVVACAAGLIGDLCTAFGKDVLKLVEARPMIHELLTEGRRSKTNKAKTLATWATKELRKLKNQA
# [2] = biological target: T2, 6His-S-Importin β(1-876), full-length WT human importin β (human, UniProt Q14974 1-876); test: FRET or BRET; Rango FRET sensor in solution: 20 nM Rango-2/α1 (pK188) and 50 nM importin β (pKW485) in TBS pH 7.4, 0.01% Tween-20, with increasing concentrations of DPR 10-mers or ZZ-RanQ69L-GTP; ratio of acceptor (535 nm) to donor (480 nm) emission; non-linear fit with one binding site; conditions: both partners purified
# T2 construct: human importin β (KPNB1), full length, residues 1-876, expressed from pET30a; Construct from Chi et al., 1997; also called KPNB1; WT importin β (pKW485)
# T2 sequence (Q14974 whole entry, the tested form may be a part): as the sequence (Q14974 whole entry) above
Binder,halo intensity (rim vs. background) relative to control beads [1] [fold],binding result [2]
B1,~2,
B2,~2,
B3,,binds
B4,,binds

# — paper PMC7051184, “C9orf72 arginine-rich dipeptide repeat proteins disrupt karyopherin-mediated nuclear import” (eLife, 2020)
